For the experiment, the target named is T1, recombinant human sc-uPA (human, UniProt P00749 21-431).
T1 construct: 411 amino acid single-chain zymogen expressed in HEK293; the 20-residue signal peptide is not present in the mature protein; also called human single-chain uPA; pro-uPA
Kind of experiment: SPR, mAb immobilised. As to the method: The binding affinity to recombinant human sc-uPA protein (SEQ ID NO:1) was measured by surface plasmon resonance (SPR).
The experiments were performed on a Biacore™ instrument (GE Healthcare) and analysed with the BIAcore 4000 Evaluation Software. Anti-human uPA mAb variants were directly immobilized at 150-600 RU on flow cells of a CM5 sensor chip (GE Healthcare; cat. # BR-1000-12) via amine coupling, respectively. Recombinant human sc-uPA was diluted in HBS-N (GE Healthcare Cat BR-1006-70) with 1% BSA buffer with a dilution factor 3× ranging 1000-0.13 nM. Recombinant human sc-uPA was injected for 60 s, followed by a 600 s dissociation phase. Binding curves were measured at 25° C. with a flow rate of 30 μL/min. Regeneration of the chip surface was performed with pH1.5 Glycine for 25 s at 30 μl/min. Determination of the kinetic parameters was performed by fitting with a 1:1 binding model. Binding affinities were calculated and are stated in Table 17 below.

Changes are numbered by the printed parent chain.

B1: rec0266-0000-0010-VH_D95A (antibody, mouse IgG1, V domains shown)
VH: DVKLVESGGGLVKPGGSLKLSCVASGFTFSSYTMSWVRQTPEKRLEWVATISGGGSHIYYADSVKGRFTISRDNAKNTLYLQMSSLKSEDTAIYYCTRAGRDGSWFAYWGQGTLVTVSA
VL: DIVMTQSPATLSVTPGDRVSLSCRTSQSIGDYLHWYQQKSHESPRLLIKYVSQSISGIPSRFSGSGSGSDFTLSINSVESEDVGVYYCQNSHSFPLTFGSGTKLELKR
For B1, the Kd stood at 2.6 nM.

B2: rec0266-0000-0010-VH_D98F (antibody, mouse IgG1, V domains shown)
VH: B1 VH with A99D, D102F
VL: B1 VL
B2: the Kd was 1.5 nM.

B3: rec0266-0000-0010-VH_D98I (antibody, mouse IgG1, V domains shown)
VH: B1 VH with A99D, D102I
VL: B1 VL
Regarding B3, the Kd was 2 nM.

B4: rec0266-0000-0010-VH_G96N (antibody, mouse IgG1, V domains shown)
VH: B1 VH with A99D, G100N
VL: B1 VL
B4: the Kd was found to be 21 nM.

B5: rec0266-0000-0010-VH_D95R (antibody, mouse IgG1, V domains shown)
VH: B1 VH with A99R
VL: B1 VL
For the molecule B5, the Kd was 1.3 nM.

B6: rec0266-0000-0010-VH_G96L (antibody, mouse IgG1, V domains shown)
VH: B1 VH with A99D, G100L
VL: B1 VL
Consider B6, for which the Kd is 1.9 nM.

B7: rec0266-0000-0010-VH_D98E (antibody, mouse IgG1, V domains shown)
VH: B1 VH with A99D, D102E
VL: B1 VL
Turning to B7, the Kd worked out at 4.9 nM.

B8: rec0266-0000-0010-VH_G96H (antibody, mouse IgG1, V domains shown)
VH: B1 VH with A99D, G100H
VL: B1 VL
In the case of B8, the Kd was determined as 5.8 nM.

B9: rec0266-0000-0010-VH_D98T (antibody, mouse IgG1, V domains shown)
VH: B1 VH with A99D, D102T
VL: B1 VL
On to B9, for which the Kd turned out to be 2.2 nM.

B10: rec0266-0000-0010-VH_D95L (antibody, mouse IgG1, V domains shown)
VH: B1 VH with A99L
VL: B1 VL
For B10, the Kd came to 4.7 nM.

B11: rec0266-0000-0010-VH_D95T (antibody, mouse IgG1, V domains shown)
VH: B1 VH with A99T
VL: B1 VL
Regarding B11, the Kd worked out at 1.5 nM.

B12: rec0266-0000-0010-VH_G96A (antibody, mouse IgG1, V domains shown)
VH: B1 VH with A99D, G100A
VL: B1 VL
Turning to B12, the equilibrium dissociation constant (Kd) was determined as 1.5 nM.

B13: rec0266-0000-0010-VH_G96Y (antibody, mouse IgG1, V domains shown)
VH: B1 VH with A99D, G100Y
VL: B1 VL
For the molecule B13, the Kd was found to be 13 nM.

B14: rec0266-0000-0010-VH_G96S (antibody, mouse IgG1, V domains shown)
VH: B1 VH with A99D, G100S
VL: B1 VL
Consider B14, for which the dissociation constant (Kd) was 1.3 nM.

B15: rec0266-0000-0010-VH_G96I (antibody, mouse IgG1, V domains shown)
VH: B1 VH with A99D, G100I
VL: B1 VL
As to B15, the Kd was determined as 1.8 nM.

B16: rec0266-0000-0010-VH_G96E (antibody, mouse IgG1, V domains shown)
VH: B1 VH with A99D, G100E
VL: B1 VL
B16: the equilibrium dissociation constant (Kd) stood at 2.3 nM.

B17: rec0266-0000-0010-VH_D95V (antibody, mouse IgG1, V domains shown)
VH: B1 VH with A99V
VL: B1 VL
Turning to B17, the Kd is 0.8 nM.

B18: rec0266-0000-0010-VH_G96F (antibody, mouse IgG1, V domains shown)
VH: B1 VH with A99D, G100F
VL: B1 VL
Consider B18, for which the dissociation constant (Kd) worked out at 7.2 nM.

B19: rec0266-0000-0010-VH_D95F (antibody, mouse IgG1, V domains shown)
VH: B1 VH with A99F
VL: B1 VL
In the case of B19, the Kd amounted to 12 nM.

B20: rec0266-0000-0010-VH_D95E (antibody, mouse IgG1, V domains shown)
VH: B1 VH with A99E
VL: B1 VL
Turning to B20, the Kd was 2 nM.

B21: rec0266-0000-0010-VH_D98V (antibody, mouse IgG1, V domains shown)
VH: B1 VH with A99D, D102V
VL: B1 VL
With B21, the Kd was 2.1 nM.

B22: rec0266-0000-0010-VH_G96T (antibody, mouse IgG1, V domains shown)
VH: B1 VH with A99D, G100T
VL: B1 VL
In the case of B22, the Kd amounted to 3 nM.

B23: rec0266-0000-0010-VH_D95Y (antibody, mouse IgG1, V domains shown)
VH: B1 VH with A99Y
VL: B1 VL
As to B23, the dissociation constant (Kd) was found to be 5 nM.

B24: rec0266-0000-0010-VH_D98G (antibody, mouse IgG1, V domains shown)
VH: B1 VH with A99D, D102G
VL: B1 VL
In the case of B24, the Kd amounted to 2.4 nM.

B25: rec0266-0000-0010-VH_G96P (antibody, mouse IgG1, V domains shown)
VH: B1 VH with A99D, G100P
VL: B1 VL
On to B25, for which the Kd was 2.1 nM.

B26: rec0266-0000-0010-VH_D98H (antibody, mouse IgG1, V domains shown)
VH: B1 VH with A99D, D102H
VL: B1 VL
Consider B26, for which the Kd was 1.7 nM.

B27: rec0266-0000-0010-VH_D98S (antibody, mouse IgG1, V domains shown)
VH: B1 VH with A99D, D102S
VL: B1 VL
Take B27: the Kd is 14 nM.

B28: rec0266-0000-0010-VH_D98P (antibody, mouse IgG1, V domains shown)
VH: B1 VH with A99D, D102P
VL: B1 VL
With B28, the Kd was determined as 0.98 nM.

B29: rec0266-0000-0010-VH_D95S (antibody, mouse IgG1, V domains shown)
VH: B1 VH with A99S
VL: B1 VL
For the molecule B29, the Kd is 4 nM.

B30: rec0266-0000-0010-VH_D95K (antibody, mouse IgG1, V domains shown)
VH: B1 VH with A99K
VL: B1 VL
For B30, the Kd was determined as 12 nM.

B31: rec0266-0000-0010-VH_D95H (antibody, mouse IgG1, V domains shown)
VH: B1 VH with A99H
VL: B1 VL
Turning to B31, the Kd was 6.5 nM.

B32: rec0266-0000-0010-VH_D98R (antibody, mouse IgG1, V domains shown)
VH: B1 VH with A99D, D102R
VL: B1 VL
Consider B32, for which the Kd came out at 1.1 nM.

B33: rec0266-0000-0010-VH_D98Y (antibody, mouse IgG1, V domains shown)
VH: B1 VH with A99D, D102Y
VL: B1 VL
With B33, the Kd amounted to 1.8 nM.

B34: rec0266-0000-0010-VH_D98A (antibody, mouse IgG1, V domains shown)
VH: B1 VH with A99D, D102A
VL: B1 VL
As for B34, the Kd turned out to be 0.95 nM.

B35: rec0266-0000-0010-VH_D95P (antibody, mouse IgG1, V domains shown)
VH: B1 VH with A99P
VL: B1 VL
For B35, the Kd came out at 2.7 nM.

B36: rec0266-0000-0010-VH_D98K (antibody, mouse IgG1, V domains shown)
VH: B1 VH with A99D, D102K
VL: B1 VL
Regarding B36, the Kd was 2 nM.

B37: rec0266-0000-0010-VH_D98L (antibody, mouse IgG1, V domains shown)
VH: B1 VH with A99D, D102L
VL: B1 VL
Turning to B37, the Kd stood at 2 nM.

B38: rec0266-0000-0010-VH_D95G (antibody, mouse IgG1, V domains shown)
VH: B1 VH with A99G
VL: B1 VL
In the case of B38, the Kd turned out to be 12 nM.

B39: rec0266-0000-0010-VH_G96K (antibody, mouse IgG1, V domains shown)
VH: B1 VH with A99D, G100K
VL: B1 VL
B39: the Kd worked out at 0.95 nM.

B40: rec0266-0000-0010-VH_G96V (antibody, mouse IgG1, V domains shown)
VH: B1 VH with A99D, G100V
VL: B1 VL
As for B40, the Kd was found to be 2.1 nM.

B41: rec0266-0000-0010-VH_G96R (antibody, mouse IgG1, V domains shown)
VH: B1 VH with A99D, G100R
VL: B1 VL
As for B41, the Kd was 3 nM.

B42: rec0266-0000-0010-VH_D95I (antibody, mouse IgG1, V domains shown)
VH: B1 VH with A99I
VL: B1 VL
In the case of B42, the Kd came to 1.4 nM.

The record behind these values is US20160159924A1 (Novo Nordisk, published 2016).
